Experimental data published in US20170119874A1 (INSTITUTE FOR RESEARCH IN BIOMEDICINE, published 2017).

T1: gHgLpUL128pUL130 (HEK293T cells transfected with the HCMV genes) (HCMV, UniProt P12824 24-743; P16832 31-278; P16837 1-171; P16772 1-214)
T1 sequence (looked up) 1: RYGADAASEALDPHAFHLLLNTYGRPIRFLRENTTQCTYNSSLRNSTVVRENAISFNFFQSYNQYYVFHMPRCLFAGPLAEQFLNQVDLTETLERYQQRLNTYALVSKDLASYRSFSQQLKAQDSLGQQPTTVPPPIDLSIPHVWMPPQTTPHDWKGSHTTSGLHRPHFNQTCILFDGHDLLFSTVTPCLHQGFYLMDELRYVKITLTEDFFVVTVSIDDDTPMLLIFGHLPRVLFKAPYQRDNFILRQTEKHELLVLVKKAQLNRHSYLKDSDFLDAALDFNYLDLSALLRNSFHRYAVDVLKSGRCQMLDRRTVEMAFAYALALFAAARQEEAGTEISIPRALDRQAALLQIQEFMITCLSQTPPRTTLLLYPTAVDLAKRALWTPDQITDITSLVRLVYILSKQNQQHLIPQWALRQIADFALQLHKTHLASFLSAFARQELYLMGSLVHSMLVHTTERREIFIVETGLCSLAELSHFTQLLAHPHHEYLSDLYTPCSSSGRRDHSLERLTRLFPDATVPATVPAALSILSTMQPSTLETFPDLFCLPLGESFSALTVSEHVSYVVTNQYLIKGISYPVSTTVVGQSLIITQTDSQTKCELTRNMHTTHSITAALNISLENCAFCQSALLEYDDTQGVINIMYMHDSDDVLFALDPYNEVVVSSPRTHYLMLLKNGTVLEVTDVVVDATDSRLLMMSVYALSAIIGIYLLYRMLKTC
T1 sequence (looked up) 2: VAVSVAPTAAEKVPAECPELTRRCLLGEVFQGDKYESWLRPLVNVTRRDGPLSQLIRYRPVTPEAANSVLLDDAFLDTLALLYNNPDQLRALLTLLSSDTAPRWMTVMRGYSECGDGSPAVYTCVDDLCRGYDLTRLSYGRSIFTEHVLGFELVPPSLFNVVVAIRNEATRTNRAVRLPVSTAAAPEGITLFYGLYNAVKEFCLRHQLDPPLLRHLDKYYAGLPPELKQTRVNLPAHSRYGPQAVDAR
T1 sequence (looked up) 3: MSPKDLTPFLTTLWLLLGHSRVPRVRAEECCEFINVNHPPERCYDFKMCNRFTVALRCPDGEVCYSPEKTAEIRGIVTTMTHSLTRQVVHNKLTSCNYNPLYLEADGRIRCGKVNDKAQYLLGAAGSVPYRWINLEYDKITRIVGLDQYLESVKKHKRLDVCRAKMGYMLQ
T1 sequence (looked up) 4: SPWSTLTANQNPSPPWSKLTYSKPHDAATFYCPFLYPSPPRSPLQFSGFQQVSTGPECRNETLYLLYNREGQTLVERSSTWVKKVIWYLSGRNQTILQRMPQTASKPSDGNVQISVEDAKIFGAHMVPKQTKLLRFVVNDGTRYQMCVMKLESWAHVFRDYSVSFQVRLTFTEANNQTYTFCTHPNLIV

T2: pUL128pUL130pUL131 (HEK293T cells transfected with the HCMV genes) (HCMV, UniProt P16837 1-171; P16772 1-214; F5HET4 19-129)
T2 sequence (looked up) 1: T1 sequence (looked up) 3
T2 sequence (looked up) 2: T1 sequence (looked up) 4
T2 sequence (looked up) 3: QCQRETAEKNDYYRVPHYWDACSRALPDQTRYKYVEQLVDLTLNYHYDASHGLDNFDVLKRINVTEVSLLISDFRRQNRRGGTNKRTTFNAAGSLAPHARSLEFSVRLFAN

T3: pUL130pUL131 (HEK293T cells transfected with the HCMV genes) (HCMV, UniProt P16772 1-214; F5HET4 19-129)
T3 sequence (looked up) 1: T1 sequence (looked up) 4
T3 sequence (looked up) 2: T2 sequence (looked up) 3

T4: pUL128 (HEK293T cells transfected with the HCMV gene) (HCMV, UniProt P16837 1-171, limits assumed)
T4 sequence (looked up): T1 sequence (looked up) 3

B1: human monoclonal antibody 8I21 (antibody, V domains shown)
VH: LVELVESGGGVVQPGRSLRLSCAASGFTFSSDGMHWVRQSPGRGLEWVAFISSDGSTPYYADSVKGRFTISRDNSKNTLYLQMNSLRAEDTAMYFCAKDWALFRWLRTFDHWGQGTLVTVSS
VL: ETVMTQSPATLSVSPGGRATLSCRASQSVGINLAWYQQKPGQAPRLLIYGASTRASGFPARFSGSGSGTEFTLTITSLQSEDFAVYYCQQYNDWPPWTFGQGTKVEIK
B2: human monoclonal antibody 8J16 (antibody, V domains shown)
VH: QVQLQESGPGLVKPSETLSLTCSVSGGFTSSYYWSWIRQAPGKGLEWIGYVYYGESTDYNPSLKSRATISIDTSKNQFSLKLSSVTAADTAVYYCAREVDKRGFDYWGQGALVTVSS
VL: EIVLTQSPGTLSLSPGERATLSCRASQSVSGGYLAWYQQEPGQAPRLVIYGASSRATGIPDRFSASGSGTDFTLTITRLEPEDFAVYYCQQYGRTPLTFGGGTKVEIK
B3: human monoclonal antibody 10P3 (antibody, V domains shown)
VH: EVQLVESGGGLVRPGGSLRLSCAASGFTFHNYRMNWVRQAPGKGLEWVANIKQDGSEKSYVDSVRGRFTTSRDNSKNSLYLQINSLRAEDTAVYYCARGEGYTYGVVYSYSAMDVWGQGTTVIVSS
VL: SYELTQPPSVSVSPGQTARITCSGNVLPNQYASWYQQKPGQAPVLVIYKDTERPSGIPGRFSGSSSGTTVTLTISGVQAEDEADYYCQSADSSGADYVFGTGTKVTVL
B4: human monoclonal antibody 7I13 (antibody, V domains shown)
VH: QVQLVESGGGVVQPGRSLRLSCAASGFTFSNYGMHWVRQGPGKGLEWVAVISYDASSKYYTDSVQGRFTISRDNSKNTLFLQMNSLRGEDTAVYYCAKALRYLDWFLSDPFDYWGQGTLVTVSS
VL: EIVLTQSPGTLSLSPGERATLSCRASQSVSSDFLAWYQQKPGQAPRLLIYGASSRATGIPDRFSGSGSGTDFTLTISRLEPEDFAVYYCQQYAASPPFGQGTRLEIK
B5: human monoclonal antibody 15D8 (antibody, V domains shown)
VH: EVQLVQSGAEVKKPGESLKISCQASGYSFTNYWIAWVRQMPGKGLEWMGIIYPGDSDIKYSPSFRGQVTISADKSISNAFLQWRSLRASDTAMYYCARHAIRGDGFDYWGQGTLVTVSS
VL: SYELTQPPSVSVSPGQTATITCSGDKLGEKYACWYQQKPGQSPVLVMYQDTKRPSGIPERFSGSNSGNTATLTISGTRAMDEADYYCQAWDTNTVIFGGGTKLTVL
B6: human monoclonal antibody 8L13 (antibody, V domains shown)
VH: QVQLLESGGGVVQPGRSLRLSCAASGFTFSNYGMHWVRQAPGKGLEWVAVIWNDGSKKYYAESVKGRFTISRDNSKNTVYLQMNSLRAEDTAVYYCARDEGVQMVFAMPDYGMDVWGQGTTVTVSS
VL: SYELTQPPSVSVSPGQTASITCSGDKLGDKFACWYQQRPGQSPILVIYQDSKRPSGIPERFSGSNSGNTATLTIRGTQAMDEADYYCQAWDSSTAHYVFGTGTKVTVL

Assays:
Experiment in all cases: cell-based or functional assay
[1] = molecular target: T1, gHgLpUL128pUL130 (HEK293T cells …)
[2] = molecular target: T2, pUL128pUL130pUL131 (HEK293T cells …)
[3] = molecular target: T3, pUL130pUL131 (HEK293T cells transfected …)
[4] = molecular target: T4, pUL128 (HEK293T cells transfected with …)

Row | Binder | Log IC80, neutralization of HCMV infection of epithelial cells [2] | Log IC80, neutralization of HCMV infection of epithelial cells [3] | other results
1 | B1 |  |  | Log IC80, neutralization of HCMV infection of epithelial cells [1]: -9.5 log IC80 (concentration unit not printed)
2 | B2 | -12.3 log IC80 (concentration unit not printed) |  | 
3 | B3 |  | -10.5 log IC80 (concentration unit not printed) | 
4 | B4 | -11 log IC80 (concentration unit not printed) |  | 
5 | B5 |  |  | Log IC80, neutralization of HCMV infection of epithelial cells [4]: -11 log IC80 (concentration unit not printed)
6 | B6 |  | -11.6 log IC80 (concentration unit not printed) | 
